According to publication PMC2686265, “ATP and MO25α Regulate the Conformational State of the STRADα Pseudokinase and Activation of the LKB1 Tumour Suppressor” (PLoS Biology, 2009):
Blank lines part the entries; values can stand above or below the molecule they belong to.

Legend:
[1] = target: T1, untagged STRADα (residues 59–431) (human, UniProt Q7RTN6 59-431); assay: SPR; BIAcore T100, MO25α amine-coupled to CM5 chip, STRADα injected (5 µM to 0.3 nM), 25°C, 50 mM Tris pH 7.8, 50 mM NaCl, 270 mM sucrose, 1 mM DTT, 0.005% P20, 0.1 mg/ml BSA; without ATP; Kd = kd/ka; conditions: both partners purified
T1 construct: STRADα, human, residues 59–431; also called STRADα lacking the His tag
T1 sequence (looked up): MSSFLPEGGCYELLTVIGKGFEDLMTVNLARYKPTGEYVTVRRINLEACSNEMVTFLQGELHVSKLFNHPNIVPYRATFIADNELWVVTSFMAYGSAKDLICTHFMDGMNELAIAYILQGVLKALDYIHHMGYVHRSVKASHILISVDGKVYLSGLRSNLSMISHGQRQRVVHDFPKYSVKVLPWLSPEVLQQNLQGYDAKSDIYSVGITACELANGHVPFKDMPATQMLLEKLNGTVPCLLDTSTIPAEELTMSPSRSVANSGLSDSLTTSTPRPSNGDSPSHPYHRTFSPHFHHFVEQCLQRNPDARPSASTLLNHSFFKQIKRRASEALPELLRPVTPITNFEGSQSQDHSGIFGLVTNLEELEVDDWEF

MO25α (M260A) = target: T2, MO25α (M260A) (Homo sapiens, UniProt Q7RTN6+Q9Y376, M260A); assay: SPR BIAcore binding of STRADα to immobilised MO25α; conditions: + ATP + Mg2+
T2 construct: wild-type and mutant forms of STRADα (residues 54–431) and MO25α (residues 1–341) were expressed individually as GST fusion proteins in E. coli; GST (cleaved yes); made in house; host or cells: E. coli
T2 sequence (Q9Y376 1-341 M260A): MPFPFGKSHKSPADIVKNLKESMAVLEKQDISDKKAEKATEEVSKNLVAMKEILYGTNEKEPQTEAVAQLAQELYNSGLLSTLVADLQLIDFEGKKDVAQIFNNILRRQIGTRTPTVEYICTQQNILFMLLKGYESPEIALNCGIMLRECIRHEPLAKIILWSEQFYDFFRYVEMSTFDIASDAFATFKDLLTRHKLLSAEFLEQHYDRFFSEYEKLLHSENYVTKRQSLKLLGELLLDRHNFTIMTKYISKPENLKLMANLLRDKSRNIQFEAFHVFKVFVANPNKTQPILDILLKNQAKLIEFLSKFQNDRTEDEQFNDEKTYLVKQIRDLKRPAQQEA
T2 sequence (Q7RTN6 59-431): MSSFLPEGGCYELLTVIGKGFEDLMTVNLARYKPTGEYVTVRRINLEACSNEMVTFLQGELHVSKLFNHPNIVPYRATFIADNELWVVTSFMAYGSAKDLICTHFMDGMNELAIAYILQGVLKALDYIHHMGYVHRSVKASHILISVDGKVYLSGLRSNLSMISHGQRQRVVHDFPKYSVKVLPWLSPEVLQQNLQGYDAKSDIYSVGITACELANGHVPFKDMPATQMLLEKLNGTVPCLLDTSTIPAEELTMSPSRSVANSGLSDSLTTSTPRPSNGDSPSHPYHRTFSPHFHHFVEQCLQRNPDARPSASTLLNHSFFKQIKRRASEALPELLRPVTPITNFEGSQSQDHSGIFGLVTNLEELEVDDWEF
Description: (§1) SPR measurements were performed using a BIAcore T100 instrument. Wild-type and mutant forms of MO25α were immobilized on a CM5 sensor chip using standard amine-coupling chemistry, and 10 mM HBS (pH 7.4) was used as the running buffer. The carboxymethyl dextran surface was activated with a 7-min injection of a 1∶1 ratio of 0.4 M 1-ethyl-3-(3-dimethylaminopropyl) carbodiimide hydrochloride (EDC)/0.1 M N-hydroxy succinimide (NHS). MO25α (5–7 µM) was coupled to the surface with a 1-min injection of protein diluted in 10 mM sodium acetate (pH 5.5). Remaining activated groups were blocked with a 7-min injection of 1 M ethanolamine (pH 8.5). MO25α was immobilised on three flow cells of a CM5 chip at densities 1,700–2,500 RU performed at 25°C, leaving one flow cell as a reference to subtract any possible nonspecific binding.
(§2) STRADα was prepared in running buffer containing 50 mM Tris (pH 7.8), 50 mM NaCl, 270 mM sucrose, 1 mM DTT, 0.005% P20, and 0.1 mg/ml BSA in the presence/absence of 100 µM ATP and 1 mM MgCl2, and injected over all four surfaces at nine concentrations of a 3-fold concentration series (5 µM to […]). Each concentration was injected in duplicate over all surfaces. Association was measured for 60 s at a flow rate of 50 µl/min, and dissociation was measured for 3 min. STRADα dissociated completely from the MO25α surfaces, thus eliminating the need for a regeneration step.
(§3) Data were analysed using Scrubber 2 (BioLogic Software) and CLAMP software. Data were double referenced to the reference surface to subtract any possible nonspecific binding and to the blank buffer injections to subtract drift of the target from surface. Data were fitted to a 1∶1 or 2∶1 binding site model where appropriate. Kinetic association (k a) and dissociation rate (k d) constants were separately determined from the BIAcore sensorgrams, and equilibrium dissociation constants (K d) were calculated as: K d1 = k d1/k a1 and K d2 = k d2/k a2. Equilibrium constants were also independently calculated from a saturation binding curve, by fitting the measured response (R) from specific binding to the following equation: R = (R max1[STRAD]/([STRAD]+K d1))+(R max2[STRAD]/([STRAD]+K d2)), where R max1 and R max2 are the relative maximal changes in response for sites 1 and 2, respectively, and K d1 and K d2 are the equilibrium dissociation constants for sites 1 and 2, respectively. Dose-response curves for calculating the Hill slope (H) of the data were fitted with the following equation: R = minimum+(maximum−minimum)/(1+10^((logEC50−[STRAD])×H)) using GraphPad-PRISM software.

MO25α (WT) = target: T3, MO25α (WT) (Homo sapiens, UniProt Q7RTN6+Q9Y376); assay: SPR BIAcore binding of STRADα to immobilised MO25α; conditions: + ATP + Mg2+
T3 construct: wild-type and mutant forms of STRADα (residues 54–431) and MO25α (residues 1–341) were expressed individually as GST fusion proteins in E. coli; GST (cleaved yes); made in house; host or cells: E. coli (STRADα: BL21(DE3)pLysS, co-expressed with MO25α and then separated from it)
T3 sequence (Q9Y376 1-341): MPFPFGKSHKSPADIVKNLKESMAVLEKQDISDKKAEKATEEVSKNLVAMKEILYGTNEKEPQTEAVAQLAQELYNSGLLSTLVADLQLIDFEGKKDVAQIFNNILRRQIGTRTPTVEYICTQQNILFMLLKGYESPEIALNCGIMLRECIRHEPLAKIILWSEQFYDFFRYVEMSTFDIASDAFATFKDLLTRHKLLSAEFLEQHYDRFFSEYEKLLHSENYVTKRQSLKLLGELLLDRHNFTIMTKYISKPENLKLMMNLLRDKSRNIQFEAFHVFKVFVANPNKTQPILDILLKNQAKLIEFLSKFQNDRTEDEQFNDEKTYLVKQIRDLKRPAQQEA
T3 sequence (Q7RTN6 59-431): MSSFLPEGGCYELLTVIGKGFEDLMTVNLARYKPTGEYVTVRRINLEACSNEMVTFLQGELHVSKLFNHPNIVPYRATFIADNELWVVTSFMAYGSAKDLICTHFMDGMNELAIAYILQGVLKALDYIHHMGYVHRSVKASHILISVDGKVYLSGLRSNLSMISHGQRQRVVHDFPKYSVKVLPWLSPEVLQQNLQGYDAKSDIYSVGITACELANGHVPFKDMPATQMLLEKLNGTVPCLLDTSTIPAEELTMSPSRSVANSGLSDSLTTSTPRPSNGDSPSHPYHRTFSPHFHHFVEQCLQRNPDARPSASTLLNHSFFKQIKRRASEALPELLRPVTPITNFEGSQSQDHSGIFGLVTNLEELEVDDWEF
Description: as §1, §2, §3

MO25α (R227A) = target: T4, MO25α (R227A) (Homo sapiens, UniProt Q7RTN6+Q9Y376, R227A); assay: SPR BIAcore binding of STRADα to immobilised MO25α; conditions: + ATP + Mg2+
T4 construct: wild-type and mutant forms of STRADα (residues 54–431) and MO25α (residues 1–341) were expressed individually as GST fusion proteins in E. coli; GST (cleaved yes); made in house; host or cells: E. coli
T4 sequence (Q9Y376 1-341 R227A): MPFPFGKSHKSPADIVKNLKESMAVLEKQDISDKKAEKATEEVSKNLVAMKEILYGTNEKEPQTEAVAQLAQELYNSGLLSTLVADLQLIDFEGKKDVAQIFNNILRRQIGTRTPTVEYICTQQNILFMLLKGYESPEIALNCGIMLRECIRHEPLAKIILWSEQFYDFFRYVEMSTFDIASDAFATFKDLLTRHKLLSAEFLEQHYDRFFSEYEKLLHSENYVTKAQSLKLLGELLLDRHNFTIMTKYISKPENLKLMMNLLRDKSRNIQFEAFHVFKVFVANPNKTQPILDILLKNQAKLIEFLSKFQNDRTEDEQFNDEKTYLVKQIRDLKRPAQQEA
T4 sequence (Q7RTN6 59-431): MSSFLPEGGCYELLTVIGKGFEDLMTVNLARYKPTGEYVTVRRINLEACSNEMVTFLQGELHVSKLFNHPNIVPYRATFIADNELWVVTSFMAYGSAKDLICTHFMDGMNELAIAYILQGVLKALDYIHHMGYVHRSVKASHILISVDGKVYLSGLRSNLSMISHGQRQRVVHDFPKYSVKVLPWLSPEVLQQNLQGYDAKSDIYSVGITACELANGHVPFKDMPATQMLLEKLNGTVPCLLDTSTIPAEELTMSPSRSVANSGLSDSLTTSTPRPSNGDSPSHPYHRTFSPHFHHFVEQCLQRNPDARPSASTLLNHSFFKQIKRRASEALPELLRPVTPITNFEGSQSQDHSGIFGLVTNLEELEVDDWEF
Description: as §1, §2, §3

Kd [1]: 3.8 µM
B1: MO25α (WT) (residues 1–341) (natural protein, human, UniProt Q9Y376 1-341, looked up)
chain: MPFPFGKSHKSPADIVKNLKESMAVLEKQDISDKKAEKATEEVSKNLVAMKEILYGTNEKEPQTEAVAQLAQELYNSGLLSTLVADLQLIDFEGKKDVAQIFNNILRRQIGTRTPTVEYICTQQNILFMLLKGYESPEIALNCGIMLRECIRHEPLAKIILWSEQFYDFFRYVEMSTFDIASDAFATFKDLLTRHKLLSAEFLEQHYDRFFSEYEKLLHSENYVTKRQSLKLLGELLLDRHNFTIMTKYISKPENLKLMMNLLRDKSRNIQFEAFHVFKVFVANPNKTQPILDILLKNQAKLIEFLSKFQNDRTEDEQFNDEKTYLVKQIRDLKRPAQQEA
notes: MO25α, human, residues 1–341 (full length); also called MO25α (WT, wild type); wild-type MO25α; source: E. coli, expressed individually as GST fusion, purified on glutathione-Sepharose, eluted with PreScission protease

binding result [1]: binds
B2: MO25α (M260A) (residues 1–341) (natural protein, human, UniProt Q9Y376 1-341, looked up)
chain: MPFPFGKSHKSPADIVKNLKESMAVLEKQDISDKKAEKATEEVSKNLVAMKEILYGTNEKEPQTEAVAQLAQELYNSGLLSTLVADLQLIDFEGKKDVAQIFNNILRRQIGTRTPTVEYICTQQNILFMLLKGYESPEIALNCGIMLRECIRHEPLAKIILWSEQFYDFFRYVEMSTFDIASDAFATFKDLLTRHKLLSAEFLEQHYDRFFSEYEKLLHSENYVTKRQSLKLLGELLLDRHNFTIMTKYISKPENLKLMANLLRDKSRNIQFEAFHVFKVFVANPNKTQPILDILLKNQAKLIEFLSKFQNDRTEDEQFNDEKTYLVKQIRDLKRPAQQEA
notes: MO25α, human, residues 1–341 (full length), M260A; source: E. coli, expressed individually as GST fusion, purified on glutathione-Sepharose, eluted with PreScission protease

kd1 (MO25α (M260A)): 0.77 (4.6 × 10−3) s−1
kd2 (MO25α (M260A)): 0.11 (5.3 × 10−4) s−1
kd1 (MO25α (WT)): 0.55 (3.8 × 10−3) s−1
kd2 (MO25α (WT)): 0.08 (4.8 × 10−4) s−1
kd1 (MO25α (R227A)): 1.61 (7.0 × 10−3) s−1
B3: His-STRADα: STRADα (residues 59–431) with N-terminal 6-His tag, SPR analyte (protein)
chain: MSSFLPEGGCYELLTVIGKGFEDLMTVNLARYKPTGEYVTVRRINLEACSNEMVTFLQGELHVSKLFNHPNIVPYRATFIADNELWVVTSFMAYGSAKDLICTHFMDGMNELAIAYILQGVLKALDYIHHMGYVHRSVKASHILISVDGKVYLSGLRSNLSMISHGQRQRVVHDFPKYSVKVLPWLSPEVLQQNLQGYDAKSDIYSVGITACELANGHVPFKDMPATQMLLEKLNGTVPCLLDTSTIPAEELTMSPSRSVANSGLSDSLTTSTPRPSNGDSPSHPYHRTFSPHFHHFVEQCLQRNPDARPSASTLLNHSFFKQIKRRASEALPELLRPVTPITNFEGSQSQDHSGIFGLVTNLEELEVDDWEF
modifications: lysines chemically methylated in the 2.35 Å crystal form only; left off: His6 with TEV site (…), N-terminal, kept
notes: STRADα (residues 59–431) with N-terminal 6-His tag, SPR analyte
